{"source": "patent US20120219551A1", "about": "(MacroGenics, published 2012)", "binders": {"B1": {"name": "ch4-4-20 MgFc66 (A330V, V427M) (antibody)", "chain 1": "not shown", "chain 2": "DVVMTQTPLSLPVSLGDQASISCRSSQSLVHSNGNTYLRWYLQKPGQSPKVLIYKVSNRFSGVPDRFSGSGSGTDFTLKISRVEAEDLGVYFCSQSTHVPWTFGGGTKLEIKRTVAAPSVFIFPPSDEQLKSGTASVVCLLNNFYPREAKVQWKVDNALQSGNSQESVTEQDSKDSTYSLSSTLTLSKADYEKHKVYACEVTHQGLSSPVTKSFNRGEC"}}, "molecular_target": "T1, soluble dimeric FcγRIIB-Fc fusion protein (extracellular domain of FcγRIIB fused to hinge-CH2-CH3 of human … (human, UniProt P31994 43-217))", "T1 construct": "extracellular domain; also called FcRIIB-Fc; 2bfcagl; not shown: human IgG2 hinge-CH2-CH3", "T1 sequence (looked up)": "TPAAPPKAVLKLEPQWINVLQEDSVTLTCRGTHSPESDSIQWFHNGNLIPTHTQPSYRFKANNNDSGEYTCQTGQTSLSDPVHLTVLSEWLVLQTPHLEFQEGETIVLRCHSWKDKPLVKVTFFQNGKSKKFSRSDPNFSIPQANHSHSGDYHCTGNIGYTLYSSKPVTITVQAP", "assay": "SPR (BIAcore), Fc mutant in ch4-4-20, off rate relative to wild type", "data": [{"binder": "B1", "values": [{"measurement": "Koff WT/Mut", "value": 0.62}]}]}
